Data set [1] deals with T1, Dnp-GPVNFRVC(Me)-NH2.
T1 chain: GPVNFRVX

In data set [2] the target is type IV collagen, P08572.
Chain of type IV collagen, P08572 (P08572 26-1712, chain 1 of 2): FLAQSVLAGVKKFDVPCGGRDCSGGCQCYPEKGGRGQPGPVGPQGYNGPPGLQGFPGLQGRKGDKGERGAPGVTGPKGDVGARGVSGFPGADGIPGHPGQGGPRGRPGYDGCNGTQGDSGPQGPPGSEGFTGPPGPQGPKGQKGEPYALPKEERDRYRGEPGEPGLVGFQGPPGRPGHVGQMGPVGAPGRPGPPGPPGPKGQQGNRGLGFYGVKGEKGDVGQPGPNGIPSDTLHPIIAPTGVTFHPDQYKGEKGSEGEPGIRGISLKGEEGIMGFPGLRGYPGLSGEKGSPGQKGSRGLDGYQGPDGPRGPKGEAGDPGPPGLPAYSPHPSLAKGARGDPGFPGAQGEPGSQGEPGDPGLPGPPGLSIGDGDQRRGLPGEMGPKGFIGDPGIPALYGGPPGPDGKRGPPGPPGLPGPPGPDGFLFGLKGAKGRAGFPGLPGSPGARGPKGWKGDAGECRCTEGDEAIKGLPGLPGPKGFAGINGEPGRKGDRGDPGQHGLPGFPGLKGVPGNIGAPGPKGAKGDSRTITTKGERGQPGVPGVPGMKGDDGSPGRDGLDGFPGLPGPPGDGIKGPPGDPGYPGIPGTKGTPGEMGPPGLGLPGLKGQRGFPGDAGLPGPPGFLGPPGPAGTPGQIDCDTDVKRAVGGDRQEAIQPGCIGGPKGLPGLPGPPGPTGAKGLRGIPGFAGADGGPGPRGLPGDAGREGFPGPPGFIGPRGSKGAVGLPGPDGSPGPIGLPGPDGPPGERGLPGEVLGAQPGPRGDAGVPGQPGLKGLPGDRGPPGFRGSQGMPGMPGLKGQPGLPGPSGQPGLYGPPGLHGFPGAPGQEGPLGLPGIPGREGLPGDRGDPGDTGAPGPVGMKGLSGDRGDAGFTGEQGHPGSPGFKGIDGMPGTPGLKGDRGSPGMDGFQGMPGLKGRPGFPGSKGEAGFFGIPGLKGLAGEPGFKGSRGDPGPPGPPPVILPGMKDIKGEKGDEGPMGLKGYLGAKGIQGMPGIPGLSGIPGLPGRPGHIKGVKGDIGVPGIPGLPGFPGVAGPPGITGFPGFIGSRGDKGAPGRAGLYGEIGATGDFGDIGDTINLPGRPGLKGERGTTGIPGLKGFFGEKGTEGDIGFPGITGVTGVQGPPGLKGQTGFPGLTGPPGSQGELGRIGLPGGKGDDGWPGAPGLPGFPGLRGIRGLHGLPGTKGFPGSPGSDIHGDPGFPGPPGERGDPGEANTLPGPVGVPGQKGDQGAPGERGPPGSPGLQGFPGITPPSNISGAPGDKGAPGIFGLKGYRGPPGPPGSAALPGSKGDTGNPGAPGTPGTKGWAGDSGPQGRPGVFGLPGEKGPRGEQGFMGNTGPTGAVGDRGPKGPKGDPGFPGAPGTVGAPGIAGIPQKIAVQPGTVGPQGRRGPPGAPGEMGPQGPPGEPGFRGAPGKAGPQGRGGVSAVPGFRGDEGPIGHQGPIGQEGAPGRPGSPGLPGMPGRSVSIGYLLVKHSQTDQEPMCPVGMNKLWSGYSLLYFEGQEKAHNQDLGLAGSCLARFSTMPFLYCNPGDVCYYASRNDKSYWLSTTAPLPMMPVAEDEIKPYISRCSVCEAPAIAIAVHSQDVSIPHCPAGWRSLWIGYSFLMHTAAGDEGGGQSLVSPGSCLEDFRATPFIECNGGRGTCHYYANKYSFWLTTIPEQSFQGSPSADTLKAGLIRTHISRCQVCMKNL
Chain of type IV collagen, P08572 (chain, as listed by the source, chain 2 of 2): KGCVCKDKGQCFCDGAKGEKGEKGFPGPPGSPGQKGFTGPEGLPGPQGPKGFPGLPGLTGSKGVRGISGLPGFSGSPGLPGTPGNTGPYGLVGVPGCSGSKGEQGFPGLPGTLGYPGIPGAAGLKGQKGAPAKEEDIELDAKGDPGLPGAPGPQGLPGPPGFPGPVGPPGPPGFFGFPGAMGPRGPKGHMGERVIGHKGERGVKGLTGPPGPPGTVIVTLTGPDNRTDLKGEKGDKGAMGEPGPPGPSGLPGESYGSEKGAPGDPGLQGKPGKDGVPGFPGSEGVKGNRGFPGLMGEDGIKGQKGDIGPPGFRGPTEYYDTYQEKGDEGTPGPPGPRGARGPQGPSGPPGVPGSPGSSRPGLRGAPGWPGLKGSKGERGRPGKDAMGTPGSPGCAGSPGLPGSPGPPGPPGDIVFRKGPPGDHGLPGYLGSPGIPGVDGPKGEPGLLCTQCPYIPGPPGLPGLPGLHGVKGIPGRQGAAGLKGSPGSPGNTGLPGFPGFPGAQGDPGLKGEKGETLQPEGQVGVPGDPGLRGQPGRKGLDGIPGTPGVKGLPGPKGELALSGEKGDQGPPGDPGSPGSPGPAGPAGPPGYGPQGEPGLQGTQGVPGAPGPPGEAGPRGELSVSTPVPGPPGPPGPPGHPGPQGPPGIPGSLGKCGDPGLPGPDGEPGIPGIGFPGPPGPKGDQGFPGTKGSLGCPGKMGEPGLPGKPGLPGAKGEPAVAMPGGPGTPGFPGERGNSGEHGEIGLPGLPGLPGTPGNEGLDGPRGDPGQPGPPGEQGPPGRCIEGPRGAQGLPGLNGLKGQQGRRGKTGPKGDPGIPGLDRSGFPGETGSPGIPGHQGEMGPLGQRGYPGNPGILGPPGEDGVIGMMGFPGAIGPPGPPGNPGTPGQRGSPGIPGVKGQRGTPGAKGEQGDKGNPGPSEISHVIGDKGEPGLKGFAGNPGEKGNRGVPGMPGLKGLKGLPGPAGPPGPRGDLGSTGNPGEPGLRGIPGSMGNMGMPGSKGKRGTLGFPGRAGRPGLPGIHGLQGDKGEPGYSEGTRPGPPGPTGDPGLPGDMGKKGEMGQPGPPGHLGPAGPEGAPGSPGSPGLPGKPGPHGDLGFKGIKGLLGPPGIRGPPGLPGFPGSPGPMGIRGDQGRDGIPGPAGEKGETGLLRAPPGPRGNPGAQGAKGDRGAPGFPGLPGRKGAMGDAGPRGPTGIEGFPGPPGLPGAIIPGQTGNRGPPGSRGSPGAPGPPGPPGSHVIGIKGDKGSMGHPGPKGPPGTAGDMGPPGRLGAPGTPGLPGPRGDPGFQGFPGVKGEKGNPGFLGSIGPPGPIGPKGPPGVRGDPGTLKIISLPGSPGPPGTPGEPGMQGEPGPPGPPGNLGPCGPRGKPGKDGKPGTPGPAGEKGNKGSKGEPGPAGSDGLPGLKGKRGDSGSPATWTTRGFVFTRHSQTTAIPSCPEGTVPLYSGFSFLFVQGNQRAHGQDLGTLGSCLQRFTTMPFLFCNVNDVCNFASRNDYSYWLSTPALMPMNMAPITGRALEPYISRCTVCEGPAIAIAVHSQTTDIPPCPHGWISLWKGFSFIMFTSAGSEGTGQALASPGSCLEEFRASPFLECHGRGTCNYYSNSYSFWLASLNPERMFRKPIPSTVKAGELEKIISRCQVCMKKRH

B1: human Gelatinase-A (protein)
chain: YNFFPRKPKWDKNQITYRIIGYTPDLDPETVDDAFARAFQVWSDVTPLRFSRIHDGEADIMINFGRWEHGDGYPFDGKDGLLAHAFAPGTGVGGDSHFDDDELWTLGEGQVVRVKYGNADGEYCKFPFLFNGKEYNSCTDTGRSDGFLWCSTTYNFEKDGKYGFCPHEALFTMGGNAEGQPCKFPFRFQGTSYDSCTTEGRTDGYRWCGTTEDYDRDKKYGFCPETAMSTVGGNSEGAPCVFPFTFLGNKYESCTSAGRSDGKMWCATTANYDDDRKWGFCPDQGYSLFLVAAHEFGHAMGLEHSQDPGALMAPIYTYTKNFRLSQDDIKGIQELYGASPDIDLGTGPTPTLGPVTPEICKQDIVFDGIAQIRGEIFFFKDRFIWRTVTPRDKPMGPLLVATFWPELPEKIDAVYEAPQEEKAVFFAGNEYWIYSASTLERGYPKPLTSLGLPPDVQRVDAAFNWSKNKKTYIFAGDKFWRYNEVKKKMDPGFPKLIADAWNAIPDNLDAVVDLQGGGHSYFFKGAYYLKLENQSLKSVKFGSIKSDWLGC
B1 displayed a Selectivity v. Coll-3, substrate 5 uM in data set [1] of 88 unitless. The “cleavage seen on a gel” value in data set [2] is given as “No detectable cleavage was observed by gelatinase A in an earlier experiment”.

B2: collagenase 1 (protein)
chain: FVLTEGNPRWEQTHLTYRIENYTPDLPRADVDHAIEKAFQLWSNVTPLTFTKVSEGQADIMISFVRGDHRDNSPFDGPGGNLAHAFQPGPGIGGDAHFDEDERWTNNFREYNLHRVAAHELGHSLGLSHSTDIGALMYPSYTFSGDVQLAQDDIDGIQAIYGRSQNPVQPIGPQTPKACDSKLTFDAITTIRGEVMFFKDRFYMRTNPFYPEVELNFISVFWPQLPNGLEAAYEFADRDEVRFFKGNKYWAVQGQNVLHGYPKDIYSSFGFPRTVKHIDAALSEENTGKTYFFVANKYWRYDEYKRSMDPGYPKMIAHDFPGIGHKVDAVFMKDGFFYFFHGTRQYKFDPKTKRILTLQKANSWFNCRKN
In the case of B2, the “cleavage seen on a gel” value in data set [2] was “Both collagenase 1 and gelatinase B processed type IV collagen under the conditions used in our experiments”.

The values above are taken from patent US20030229005.
